Assay results from the DeepSol protein solubility set.

Assay: soluble on expression in E. coli; label from the status in PepcDB or PDB records

Sequence	soluble on expression in E. coli
MGSDKIHHHHHHMPRPYTLFTGQWADLPFEEVARLASGWGYDGLEIAVSGDHLDAWRWDEPGYVQSKLAVLEKYNLKVWAISNHLKGQAVCDDPIDFRHEAIVGSKVWGDGDPEGVRTRAAEEMKHTARLAKALGVDTVVGFTGSSIWQYVAMFPPVPEKVIQAGYQDFADRWNPILDVFDECGVRFAHEVHPSEIAYDYWTTVRTLEAIGHREAFGLNWDPSHFMWQGIDPVSFIWDFKDRIYHVDCKDTKLRPTGRNTVLGSHLPWGDPRRGWDFVSAGRGDVPWESSFRALTAIGYDGPISVEWEDAGMDRLHGAPEALAALKKFDFPASQTSFDAAFSSKD	not soluble
MTVPPTATHQPWPGVIAAYRDRLPVGDDWTPVTLLEGGTPLIAATNLSKQTGCTIHLKVEGLNPTGSFKDRGMTMAVTDALAHGQRAVLCASTGNTSASAAAYAARAGITCAVLIPQGKIAMGKLAQAVMHGAKIIQIDGNFDDCLELARKMAADFPTISLVNSVNPVRIEGQKTAAFEIVDVLGTAPDVHALPVGNAGNITAYWKGYTEYHQLGLIDKLPRMLGTQAAGAAPLVLGEPVSHPETIATAIRIGSPASWTSAVEAQQQSKGRFLAASDEEILAAYHLVARVEGVFVEPASAASIAGLLKAIDDGWVARGSTVVCTVTGNGLKDPDTALKDMPSVSPVPVDPVAVVEKLGLA	soluble
MGSDKIHHHHHHMNRGMKNYLSQTNYRDAMKAADIMNSNVIYATLPSTRDKVLELFKKYEISAVPVLKNSELVGIVTRKDILRKIEENQLALLMTPNPTTVDADADVKEVVKILTSTPFRRLPVVKDGKLVGIITVRDIIKKIAEMNIEKPVKSYITPYIVCVWEETPLNVVGEIMRLSNSEFVGILNDNDELVGVIDEKIMLTETLIEDFIEQTAYSSSSDTDDSWSWDSVRDYTVKYFEVSVVKLPKEPVKNFMKKPEFVYPQTSVSKCAKRMVRSDLDYIPVLDSENRLIGTVRDKDLIRVLLEV	not soluble
GPGSMKPATIPHGKNDAEGAGARMYEGMNTLQKEELNDYLISQMGPGTKWHDEMSDVVNTIIRQRSINGEPLDVHDVLSEALPHCQLAISHEVRDGLFRRIAGMCTTTDV	soluble
GPGSMRPSRKRQARRQHPWQQRSVAHKAQRAPSSGHGASGVEHLPRDAVVHVAPRQQHRPVGQAHRRIKRHRVVLRQQKVVPHKRHSRARHAHSPTHRHRVLAQQEVAVNKRHHGAATGRNTALHRHAQPQRRLHRQPVHVERTARRQRHAAN	soluble
MPQVAGGRPRPPRGFRDFPPEVMILRKRLLSRLERVFESYGFDPLDTPAVEYWETLSGKYGEEAESRLIWRFQDPWSGRWYALRYDLTVPLARFVASNPGLPMPFKRYHIGKVWRHEEPQKGRYREFVQCDADIVGSPYPEADAEIVSLAVDSIDALGLPGFRVRVNDRRLLAGVFEEELGFDNPLPIYRAIDKLDKIGVEGVRRELERLGLPGSTVERIMEIISWRGRPGEVLESVRRGYGSNEKVREALDHLEEMLSLADDKRVELDMSLVRGLDYYTGPILEVVLDEPRIGSVAGGGRYDGLVGMFAGRDIPATGVSIGIERIIDAGLELGVYSLDVKTVAQVAVVVLDRRYYRYAWEAARILRRGGLNVRIDLSRASGQVQRRKASRLGIPVLAFVGAKEAEGGFLTLYSAAKGERVAVPLGEAVKAVERLLPS	soluble
MSLSQLFIVYLGGSAPKANIELHDVQFVIADNIEGTYEQLRQNWFGTVKDLHLDSYKAVKGADGYQISIQDKPQNSDKKLYFVNLGGYDASKLNELHEFALFVAADNTEAKEKAKQSLLKNSLHQHKDNLMEVDDCLELSKVDGKYIHLTPSDKEYDLKPYWFGYRVIGEGHHHHHH	soluble
MEVAPEQPRWMAHPAVLNAQHPDSHHPGLAHNYMEPAQLLPPDEVDVFFNHLDSQGNPYYANPAHARARVSYSPAHARLTGGQMCRPHLLHSPGLPWLDGGKAALSAAAAHHHNPWTVSPFSKTPLHPSAAGGPGGPLSVYPGAGGGSGGGSGSSVASLTPTAAHSGSHLFGFPPTPPKEVSPDPSTTGAASPASSSAGGSAARGEDKDGVKYQVSLTESMKMESGSPLRPGLATMGTQPATHHPIPTYPSYVPAAAHDYSSGLFHPGGFLGGPASSFTPKQRSKARSCSEGRECVNCGATATPLWRRDGTGHYLCNACGLYHKMNGQNRPLIKPKRRLSAARRAGTCCANCQTTTTTLWRRNANGDPVCNACGLYYKLHNVNRPLTMKKEGIQTRNRKMSNKSKKSKKGAECFEELSKCMQEKSSPFSAAALAGHMAPVGHLPPFSHSGHILPTPTPIHPSSSLSFGHPHPSSMVTAMG	soluble
MNGKVIIVTGGSSGMGKYMAKRFVSDGANVVITGRRAEALEEAKREIAAPDGGKVLTIPMDVRNPEQVAHMVERTDAEFGRIDALINNAAGNFICPAEKLSINGWNSVINIVLNGTFYCSREVGNYWIQRGLKGNIINIVATYAWHAGAGVIHSASAKAGVLAMTRTLAVEWGKKYGFRVNAIAPGPIERTGGAERLWESEEAERMTLESVPLGRLGTPEEIAAVASFLLSDEAAYINGACITVDGGQWLNRRPF	soluble
MGHHHHHHSHMQTLPVASALSSHRTGPPPISPSKRKFSMEPGDEDLDCDNDHVSKMSRIFNPHLNKTANGDCRRDPRERSRSPIERAVAPTMSLHGSHLYTSLPSLGLEQPLALTKNSLDASRPAGLSPTLTPGERQQNRPSVITCASAGARNCNLSHCPIAHSGCAAPGPASYRRPPSAATTCDPVVEEHFRRSLGKNYKEPEPAPNSVSITGSVDDHFAKALGDTWLQIKAAKDGASSSPESASRRGQPASPSAHMVSHSHSPSVVS	not soluble
MTMKGGVASQDFSAAIATACEPAANVWSKVCVALKRELGDAAFGSWIAPAMLREAATGDVVLVTSTGIARDWIRRSAWRRIGELWAAHDATGRRIDLKSRLEFEAAAGAYVEATPKAVAAEPIEIVLPVSTDAPTVVAPSAKSPRTQGLQERFTFETFVPGPANEFAHAVARRIANWADGHFNPVLFHGPYGFGKTHLLNALAWEAMRNAPEKRVVYLTAERFLSTFVRAVMDRQTAAFKEELRAADLLIIDDVHFIAGKQSTQEELFHTLTALVGEGGRVVFSADRPPSAMTEMDAHLRSHLSAGLVCGLEPADRNLRLGILERKIQTLGAAHGFEPSIRPEVMQFLADRFTDSVRELEGALNTLSARAGEGLSRMTLDEVQAILRPHLRSGEKRITIDDIQKATAEHYGMKQADLLSERRNRAVARPRQAAMWLAKQLTTRSLPDIGRRFGGRDHTTVLHAVRRIEALRAEDSALSHDLETLTRKLRGLEHHHHHH	not soluble
GMSETITFPPLMTGEAAGPGQDPFDLACQKAELGVDAGLVVYELGTDVLRAALVLAPEVPLAKAMAMLPVCGVGFQNALGALAPPEVAVHLDWNGALRINGARCGRLRIAASTDDPDTQPDWLVVGLDLPLWPEGDGGETPDETALYAEGCADVAAPRLLESWARHCLHWINRWDEGELETIHGEWRGLAHGMGEARTEAGRSGTFLGVDEDFGMLLRDETTTHLIPLTTVLVQD	soluble
MSLTDVEEQQLTVLKDPNCGCCEKWLQALPDSFSVSVQHPNNLTQRKRDSGISAEVQSCHTAISSNGYVFEGHVPPTLVSHYLAGKKSENGIGLTVPGMPVGSVGMEMGTRFQPYTVYEIKKDGSITPYQQIASLEQQQALSNEGLEGHHHHHH	soluble
MESIKVVIVGGGQAGIAMGYYLVKEKVPFMILDANEQVGDSWRNRYDSLVLFTPRTYSQLPGFPMDGAPNGFPTKDEMASYLQQYANHFNLPMRHHTKVDRVTRQQNGRFHLKTTNGWIEAEKVVIATGAFQKPYLPPVLDSANNEMSQVHSSAYRNPAQIPGKSVLVVGGGNSGAQIAVELAKERNVTMAISHPFRFLPLKLLNKSMFSWLEWGGLLYAGIDTTRGRWFKKQKDPIFGKELKSLIKKGQIHLKPRVMNVQGKEVEFADHSRLSFDRIIWSTGFSPSYEWIDIDGVIATNGWPIHNRGITNIRGLYFLGLPWQYQRGSALVCGVGRDAEYLVPFIKHGDK	not soluble
MTENAQDKARQAVETVVKSPELVEQILSDEYVQIMIARCFHSGPLPPPSDLAQYNDIISNGADRIMAMAEKEQAVRHETIRQDQTFNRRGQ	not soluble
MKLESPLGSDLARLVRIWRALIDHRLKPLELTQTHWVTLHNIHQLPPDQSQIQLAKAIGIEQPSLVRTLDQLEEKGLISRQTCASDRRAKRIKLTEKAEPLISEMEAVINKTRAEILHGISAEELEQLITLIAKLEHNIIELQAKG	not soluble
MGSDKIHHHHHHMMGGFTVLIEMHCHTSEYSSCSGVAAVNLVRQVAAKNLQGIVLTDHHHLWEASELADVRRRAEVPDHFVILAGQEVTTPELGDVLVFGADATIERGTPLAEIRRRYPAAALVWAHPYRRGKRPTPEQLCHPLLDGVEIFNSNHTVRENSQGLQDWHRDRFTAIAGTDTHGENYAGLYPTQFDHAVKTIADLAAEIRHGRCRPFLKEIPRSGANSQVIEVTIGTKGADEVRERLIIKEIGTRHKWRSAERAFRIMGEIVGHGFDEGKFRVPRPIDEDEASMTLIEQGLRGKSLFDKLLTAEPEDGRAYLSLAAGWLARLHGCRLRITPRDEFLVREDERLARYLERFTAIGHRHTRKVQEILAAVAAEERRVVAEGSAYMVQGHGDFHPKNVFVGQDVMENRSTLFVAAIDFESSYVLPRAFDVGCFLAQFRNQFYHYGEIVNAYPEELFLEAYLRDSDQVEPDFLRQVELFRARTNMSIAAYLVKVGLGDSEDLWRVIVEAERSISNLSTGPAG	not soluble
MGSDKIHHHHHHMVHGVPCFVAHRGYPALYPENSLVGIRAAVQAGARYVEIDIQLSRQLTPYLCHDDNLKRLTGRNAYLTRLKDDEIDTLTVSCPDVTCSSGTEPAPIPRLAEFCRYLAQHPQVTTFVEIKSESIARFGLSKTMDAILPVIDVVHTQCVLISFDWELIALIKSHQMYKTGWIIEHWTDEQSAMAARLQPDYLFSSIRCLPEKLDQLWPGPWQWVIYTVDDYATALGYAEAGITLIETDTISTLLAP	not soluble
MCMGGINDNLVRFVYKYKIKMKRERSAMNIEYMNQKVEFSLVRKERKSIKISVNRDFTIEVIAPFNVAEEEIKNVVYKKMKWIIKQMKRMENIIDINEEIKYSDGDAFYIFGTPYRLIVKKGIKNKMRIFGENVYMYIKEKDNYEYKKNYAEKWYKKIAAIELEYLYNEKYKIFDEIYDEKPKLIRKMKSKWGSYSPADNKVVLNTQLVKIPKTCIEYVIIHELCHVKFRNHRKEFYNYVNNFMPDWKLKKESLDRYVNVLEHHHHHH	not soluble
MTLLNSRRAAGAFATTLVASTLGLSGCTSVTSSATSSPEPPTKVAAAMQTTTGETSISNETSFNASRETSLTALGFLDYLDEEQRAALLGEGLDISTLTWANQVTALRVLESLFNEHAYELVSAVIQHVAQEPGDNPHHFLKFSPEPSTENSWELTLDGPTVGLKVTFDPDGQITFKDAHLGLSPAEVVSVTEALDTSYSESQIKKAAEQLVGSLNPTQQAALQGSGLRGAQLTEEQKTLFLKMTSNWIDLANGDSGSEQQEEIADTFSDTYIIWNEQKDGSAFFQMKGPELDFSYKESVPENAELSARGVPNIQTSFQSPLEHHHHHH	not soluble
MSQNSLPSEVSNATIDKELYYHGLLPSEDVRQLLSNNGDFLLRSSEPEPGSPRTHILSVMFNNRLDDINSIKHFVVNFVDGKYFINDKMSFPSIQKMLGTYQRNNTEIKEGCMLVNPIRRQFWELEHDQITIHKKLGEGAFGEVSSGVMKFKKGMKTVQVAIKQVKLDKTGKAKIKDFLAEARTMRKLGHQNIIKFYGVGVLQEPLYLVMELAVNGALDSFLKKNEDLSVDKKTEMILQAAWGLEYIHGKPMLHRDIAARNCLYTDGKVKISDFGLTRNGTVYQIKPNTKSPIRWLAIETIKTMICSEKTDVWAYGVLCWEIFNNAAEPYPGMKPADVATQVANGYRMPPYPHAQAEIQTMMARCNAENPNDRPSMAEIAEILQRVTETPRPNFTAIAKKEAEELLLMNSVTTKTTARRKKSNVKLPKGMSKN	not soluble
